The source of these data is paper PMC8938434, “Atomic resolution dynamics of cohesive interactions in phase-separated Nup98 FG domains” (Nature Communications, 2022).

For one data set, the target named is T1, prf.GLFG_(52 × 12).
T1 construct: engineered from the Tetrahymena thermophila MacNup98A FG domain; plasmid pSNG064; Isotope-labelled (15N, 13C) for NMR; also called perfect repeat; source: E. coli, inclusion bodies, Ni(II) chelate column, tag cut off with bdSENP1 protease, lyophilized; not shown: His14-ZZ-scSUMO, N-terminal, cleaved
T1 chain: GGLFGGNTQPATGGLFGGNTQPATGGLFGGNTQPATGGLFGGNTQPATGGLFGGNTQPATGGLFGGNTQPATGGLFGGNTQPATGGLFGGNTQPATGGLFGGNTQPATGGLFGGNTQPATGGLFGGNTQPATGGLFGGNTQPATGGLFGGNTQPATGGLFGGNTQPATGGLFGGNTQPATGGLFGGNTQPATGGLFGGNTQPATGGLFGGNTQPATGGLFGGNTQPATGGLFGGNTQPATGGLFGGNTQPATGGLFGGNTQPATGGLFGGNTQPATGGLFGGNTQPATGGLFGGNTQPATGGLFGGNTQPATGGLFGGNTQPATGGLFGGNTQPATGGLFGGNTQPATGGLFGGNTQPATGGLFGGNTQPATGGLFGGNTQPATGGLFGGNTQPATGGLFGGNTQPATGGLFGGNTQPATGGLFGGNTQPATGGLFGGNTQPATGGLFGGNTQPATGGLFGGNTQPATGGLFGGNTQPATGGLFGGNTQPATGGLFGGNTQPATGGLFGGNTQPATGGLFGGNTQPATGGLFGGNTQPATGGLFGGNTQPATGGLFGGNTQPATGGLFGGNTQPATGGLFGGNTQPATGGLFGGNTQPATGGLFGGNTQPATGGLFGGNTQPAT
Nature of the data set: partition of Atto488-coupled FG domains into FG particles (confocal laser scanning microscopy); 20 μM unlabelled prf.GLFG_(52 × 12) premixed with 0.5 μM Atto488-labelled species (GAFG: 3 μM); 20 mM NaPi pH 6.8, 150 mM NaCl, 5 mM DTT; 21 °C; apparent partition coefficient = Atto488 signal IN: OUT of the FG particles. The note with it: both partners purified.

Data set [1] concerns the molecule itself. Briefly: co-sedimentation; centrifugation assay of phase separation of GLFG_(52 × 12) variants at 25 °C, [FG domain] = 10 μM, [NaCl] = 150 mM, 20 mM NaPi pH 6.8, 5 mM DTT; repeated at 100 μM for GAFG, GLLG and GLAG; critical concentration = concentration of the supernatant.

B1: Atto488-coupled GXFG//L_(52 × 12) (other)
chain: GSGGFGNTGLAPAGGTFGNTQLQQGGGQFGQPQLTQGGGAFGQTGLTTGGGNFGGATLTAPGGGFGGGGLNPTGGNFGGNNLQQTGGTFGQGTLQTGGGNFGAPQLNQGGGTFGGGTLTTGGGQFGANTLTGGGGQFGGPSLPTTAGPFGSNNLTTGGGNFGQPALTNNGGNFGGQTLNQASGQFGANNLPPTNGKFGNNNLPQTAGTFGGATLTGNTGNFGGANLTGGGGNFGNNTLNPTGGPFGATNLAGGGGTFGGGALTGGGGTFGGGNLQTGGGTFGTANLTTAGGTFGGGNLQPQNGTFGNNNLPATGGNFGQTNLAAPQGNFGGTNLNAASGAFGQKPLSANGVLTKPNEKNLCYAISNGTDFCIFELALTQRKLVKAGQLKPGAQAGGQFGQPALNTQGGAFGGGGLATTPGNFGGAQLNTTGGTFGGQNLQAGGGNFGAPNLAAATGAFGAGNLNTQGGAFGAKPLATGGGQFGQPALTQAGGQFGNTALPAGGGTFGGATLTPGGGAFGGNTLATGGGQFGGNTLGATGGPFGGQQLNNQGGAFGNTNLNTGGGTFGGATLTTGGGGFGGSTLATGGGQFGGASLPAAGGPFGGAALQQNSGAFGGATLGQTGGQFGGATLQQGGGSFGQTALNPGGGAFGAANLTTQPGQFGGNNLAATTSC
modifications: Atto488 (coupled)
Regarding B1, the partition coefficient in the data set with prf.GLFG_(52 × 12) is over 1000.

B2: GXFG//V_(52 × 12) (other)
chain: GGFGNTGVAPAGGTFGNTQVQQGGGQFGQPQVTQGGGAFGQTGVTTGGGNFGGATVTAPGGGFGGGGVNPTGGNFGGNNVQQTGGTFGQGTVQTGGGNFGAPQVNQGGGTFGGGTVTTGGGQFGANTVTGGGGQFGGPSVPTTAGPFGSNNVTTGGGNFGQPAVTNNGGNFGGQTVNQASGQFGANNVPPTNGKFGNNNVPQTAGTFGGATVTGNTGNFGGANVTGGGGNFGNNTVNPTGGPFGATNVAGGGGTFGGGAVTGGGGTFGGGNVQTGGGTFGTANVTTAGGTFGGGNVQPQNGTFGNNNVPATGGNFGQTNVAAPQGNFGGTNVNAASGAFGQKPVSANGVLTKPNEKNLCYAISNGTDFCIFELALTQRKLVKAGQLKPGAQAGGQFGQPAVNTQGGAFGGGGVATTPGNFGGAQVNTTGGTFGGQNVQAGGGNFGAPNVAAATGAFGAGNVNTQGGAFGAKPVATGGGQFGQPAVTQAGGQFGNTAVPAGGGTFGGATVTPGGGAFGGNTVATGGGQFGGNTVGATGGPFGGQQVNNQGGAFGNTNVNTGGGTFGGATVTTGGGGFGGSTVATGGGQFGGASVPAAGGPFGGAAVQQNSGAFGGATVGQTGGQFGGATVQQGGGSFGQTAVNPGGGAFGAANVTTQPGQFGGNNVAATSC
Regarding B2, the “critical concentration for phase separation” value (“critical concentration” for short) in data set [1] came out at 8 µM.

B3: GLLG_(52 × 12) (other)
chain: GSGLLGNTGGAPAGGLLGNTQTQQGGGLLGQPQQTQGGGLLGQTGATTGGGLLGGATNTAPGGLLGGGGGNPTGGLLGGNNNQQTGGLLGQGTTQTGGGLLGAPQNNQGGGLLGGGTTTTGGGLLGANTQTGGGGLLGGPSQPTTAGLLGSNNPTTGGGLLGQPANTNNGGLLGGQTNNQASGLLGANNQPPTNGLLGNNNKPQTAGLLGGATTTGNTGLLGGANNTGGGGLLGNNTNNPTGGLLGATNPAGGGGLLGGGATTGGGGLLGGGNTQTGGGLLGTANTTTAGGLLGGGNTQPQNGLLGNNNTPATGGLLGQTNNAAPQGLLGGTNNNAASGLLGQKPASANGVLTKPNEKNLCYAISNGTDFCIFELALTQRKLVKAGQLKPGAQAGGLLGQPAQNTQGGLLGGGGAATTPGLLGGAQNNTTGGLLGGQNTQAGGGLLGAPNNAAATGLLGAGNANTQGGLLGAKPAATGGGLLGQPAQTQAGGLLGNTAQPAGGGLLGGATTTPGGGLLGGNTAATGGGLLGGNTQGATGGLLGGQQPNNQGGLLGNTNANTGGGLLGGATTTTGGGLLGGSTGATGGGLLGGASQPAAGGLLGGAAPQQNSGLLGGATAGQTGGLLGGATQQQGGGLLGQTASNPGGGLLGAANATTQPGLLGGNNQAATSC
For B3, the “critical concentration” value in data set [1] was over 100 µM.

B4: Atto488-coupled GAFG_(52 × 12) (other)
chain: GSGAFGNTGGAPAGGAFGNTQTQQGGGAFGQPQQTQGGGAFGQTGATTGGGAFGGATNTAPGGAFGGGGGNPTGGAFGGNNNQQTGGAFGQGTTQTGGGAFGAPQNNQGGGAFGGGTTTTGGGAFGANTQTGGGGAFGGPSQPTTAGAFGSNNPTTGGGAFGQPANTNNGGAFGGQTNNQASGAFGANNQPPTNGAFGNNNKPQTAGAFGGATTTGNTGAFGGANNTGGGGAFGNNTNNPTGGAFGATNPAGGGGAFGGGATTGGGGAFGGGNTQTGGGAFGTANTTTAGGAFGGGNTQPQNGAFGNNNTPATGGAFGQTNNAAPQGAFGGTNNNAASGAFGQKPASANGVLTKPNEKNLCYAISNGTDFCIFELALTQRKLVKAGQLKPGAQAGGAFGQPAQNTQGGAFGGGGAATTPGAFGGAQNNTTGGAFGGQNTQAGGGAFGAPNNAAATGAFGAGNANTQGGAFGAKPAATGGGAFGQPAQTQAGGAFGNTAQPAGGGAFGGATTTPGGGAFGGNTAATGGGAFGGNTQGATGGAFGGQQPNNQGGAFGNTNANTGGGAFGGATTTTGGGAFGGSTGATGGGAFGGASQPAAGGAFGGAAPQQNSGAFGGATAGQTGGAFGGATQQQGGGAFGQTASNPGGGAFGAANATTQPGAFGGNNQAATTSC
modifications: Atto488 (coupled)
As for B4, the partition coefficient with prf.GLFG_(52 × 12) turned out to be 4.

B5: GLFG_(52 × 12) (other)
chain: GLFGNTGGAPAGGLFGNTQTQQGGGLFGQPQQTQGGGLFGQTGATTGGGLFGGATNTAPGGLFGGGGGNPTGGLFGGNNNQQTGGLFGQGTTQTGGGLFGAPQNNQGGGLFGGGTTTTGGGLFGANTQTGGGGLFGGPSQPTTAGLFGSNNPTTGGGLFGQPANTNNGGLFGGQTNNQASGLFGANNQPPTNGLFGNNNKPQTAGLFGGATTTGNTGLFGGANNTGGGGLFGNNTNNPTGGLFGATNPAGGGGLFGGGATTGGGGLFGGGNTQTGGGLFGTANTTTAGGLFGGGNTQPQNGLFGNNNTPATGGLFGQTNNAAPQGLFGGTNNNAASGLFGQKPASANGVLTKPNEKNLCYAISNGTDFCIFELALTQRKLVKAGQLKPGAQAGGLFGQPAQNTQGGLFGGGGAATTPGLFGGAQNNTTGGLFGGQNTQAGGGLFGAPNNAAATGLFGAGNANTQGGLFGAKPAATGGGLFGQPAQTQAGGLFGNTAQPAGGGLFGGATTTPGGGLFGGNTAATGGGLFGGNTQGATGGLFGGQQPNNQGGLFGNTNANTGGGLFGGATTTTGGGLFGGSTGATGGGLFGGASQPAAGGLFGGAAPQQNSGLFGGATAGQTGGLFGGATQQQGGGLFGQTASNPGGGLFGAANATTQPGLFGGNNQAATSC
As for B5, the “critical concentration” value in data set [1] was 0.1 µM.

B6: GXFG//L_(52 × 12) (other)
chain: GGFGNTGLAPAGGTFGNTQLQQGGGQFGQPQLTQGGGAFGQTGLTTGGGNFGGATLTAPGGGFGGGGLNPTGGNFGGNNLQQTGGTFGQGTLQTGGGNFGAPQLNQGGGTFGGGTLTTGGGQFGANTLTGGGGQFGGPSLPTTAGPFGSNNLTTGGGNFGQPALTNNGGNFGGQTLNQASGQFGANNLPPTNGKFGNNNLPQTAGTFGGATLTGNTGNFGGANLTGGGGNFGNNTLNPTGGPFGATNLAGGGGTFGGGALTGGGGTFGGGNLQTGGGTFGTANLTTAGGTFGGGNLQPQNGTFGNNNLPATGGNFGQTNLAAPQGNFGGTNLNAASGAFGQKPLSANGVLTKPNEKNLCYAISNGTDFCIFELALTQRKLVKAGQLKPGAQAGGQFGQPALNTQGGAFGGGGLATTPGNFGGAQLNTTGGTFGGQNLQAGGGNFGAPNLAAATGAFGAGNLNTQGGAFGAKPLATGGGQFGQPALTQAGGQFGNTALPAGGGTFGGATLTPGGGAFGGNTLATGGGQFGGNTLGATGGPFGGQQLNNQGGAFGNTNLNTGGGTFGGATLTTGGGGFGGSTLATGGGQFGGASLPAAGGPFGGAALQQNSGAFGGATLGQTGGQFGGATLQQGGGSFGQTALNPGGGAFGAANLTTQPGQFGGNNLAATTS
B6: the “critical concentration” value in data set [1] turned out to be 0.8 µM.

B7: Atto488-coupled GLFG_(52 × 12) (other)
chain: GSGLFGNTGGAPAGGLFGNTQTQQGGGLFGQPQQTQGGGLFGQTGATTGGGLFGGATNTAPGGLFGGGGGNPTGGLFGGNNNQQTGGLFGQGTTQTGGGLFGAPQNNQGGGLFGGGTTTTGGGLFGANTQTGGGGLFGGPSQPTTAGLFGSNNPTTGGGLFGQPANTNNGGLFGGQTNNQASGLFGANNQPPTNGLFGNNNKPQTAGLFGGATTTGNTGLFGGANNTGGGGLFGNNTNNPTGGLFGATNPAGGGGLFGGGATTGGGGLFGGGNTQTGGGLFGTANTTTAGGLFGGGNTQPQNGLFGNNNTPATGGLFGQTNNAAPQGLFGGTNNNAASGLFGQKPASANGVLTKPNEKNLCYAISNGTDFCIFELALTQRKLVKAGQLKPGAQAGGLFGQPAQNTQGGLFGGGGAATTPGLFGGAQNNTTGGLFGGQNTQAGGGLFGAPNNAAATGLFGAGNANTQGGLFGAKPAATGGGLFGQPAQTQAGGLFGNTAQPAGGGLFGGATTTPGGGLFGGNTAATGGGLFGGNTQGATGGLFGGQQPNNQGGLFGNTNANTGGGLFGGATTTTGGGLFGGSTGATGGGLFGGASQPAAGGLFGGAAPQQNSGLFGGATAGQTGGLFGGATQQQGGGLFGQTASNPGGGLFGAANATTQPGLFGGNNQAATSC
modifications: Atto488 (coupled)
For B7, in the data set with prf.GLFG_(52 × 12), the partition coefficient was over 1000.
